Assay results: patent publication US20250002610A1 (Genmab, published 2025)
Positions count from the first letter of the chain named.

Legend:
[1] = molecular target: T1, cynomolgus monkey FAPα on Expi293F cells (cynomolgus monkey (Macaca fascicularis), UniProt Q12884 1-760 (human entry)); assay: flow cytometry, Expi293F cells expressing cynomolgus monkey FAPα, n = 2
T1 sequence: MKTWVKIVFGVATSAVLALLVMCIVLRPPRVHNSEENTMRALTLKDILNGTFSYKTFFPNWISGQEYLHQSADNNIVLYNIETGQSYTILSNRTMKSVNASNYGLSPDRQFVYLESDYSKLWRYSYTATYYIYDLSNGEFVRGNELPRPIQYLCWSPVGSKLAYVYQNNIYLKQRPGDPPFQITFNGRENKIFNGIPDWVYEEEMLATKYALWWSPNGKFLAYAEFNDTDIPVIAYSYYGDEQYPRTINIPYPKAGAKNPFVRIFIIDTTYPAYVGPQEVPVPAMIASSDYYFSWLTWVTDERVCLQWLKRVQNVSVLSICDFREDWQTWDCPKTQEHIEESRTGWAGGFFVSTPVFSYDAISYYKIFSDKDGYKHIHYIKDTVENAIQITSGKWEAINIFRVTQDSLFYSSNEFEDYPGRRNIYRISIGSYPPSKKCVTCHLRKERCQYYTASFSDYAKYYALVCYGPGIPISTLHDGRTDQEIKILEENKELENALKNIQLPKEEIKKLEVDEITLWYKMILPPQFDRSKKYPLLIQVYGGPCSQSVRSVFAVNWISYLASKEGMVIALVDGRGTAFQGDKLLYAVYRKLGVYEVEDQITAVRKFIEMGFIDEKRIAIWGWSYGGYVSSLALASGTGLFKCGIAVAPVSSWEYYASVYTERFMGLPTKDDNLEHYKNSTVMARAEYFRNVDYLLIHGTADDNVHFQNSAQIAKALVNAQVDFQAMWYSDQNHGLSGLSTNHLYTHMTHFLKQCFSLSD
Protocol: (§1) Binding of BisG1-FAPα-FERL/DR4-FERR, BisG1-FAPα-FEAL/b12-FEAR and IgG1-FAPα-FERL to FAPα of species commonly used for nonclinical toxicology studies was assessed by flow cytometry using Expi293F cells transiently expressing FAPα from different animal species. IgG1-b12 was included as negative control.
(§2) Expi293F cells expressing recombinant FAPα from various species (human, cynomolgus monkey, dog, pig, rat or mouse) were seeded (20,000 cells/well) in 96-Well round bottom plates (Greiner Bio-one, Cat #650101). Antibody dilutions were prepared using FACS buffer, consisting of PBS (Capricorn Scientific, Cat #PBS-10XA, diluted to 1×PBS in distilled water)+1% BSA (Roche, Cat #10735086001)+0.02% Sodium Azide (Bio-World, Cat #41920044-3). Plates were centrifuged, supernatant was removed, and cells were resuspended in 100 μL of antibody dilutions (concentration range 30-0.00017 μg/mL with three-fold serial dilutions using FACS buffer) of BisG1-FAPα-FERL/DR4-FERR, BisG1-FAPα-FEAL/b12-FEAR, IgG1-FAPα-FERL and IgG1-b12 and incubated for 30 min at 4° C. […] After 30 min incubation at 4° C., cells were washed with FACS buffer and resuspended in FACS buffer supplemented with TO-PRO-3 Iodide viability marker (Invitrogen, Cat #T3605, diluted 1:4,000). Antibody binding to viable cells (gMFI of PE on TO-PRO-3 negative cells) was analyzed by flow cytometry on a FACS Celesta and FACS_Diva software (first two experiments) or iQue® 3 and FlowJo software (last experiment). gMFI was determined and visualized using GraphPad Prism. Binding curves were analyzed using nonlinear regression analysis. The concentration (pg/mL) at which 50% of the maximal effect was observed (EC₅₀) was derived from the fitted curves.

[2] = molecular target: T1, cynomolgus monkey FAPα on Expi293F cells; assay: flow cytometry, Expi293F cells expressing cynomolgus monkey FAPα, n = 3
Protocol: as §1, §2

[3] = molecular target: T2, dog FAPα on Expi293F cells (dog (Canis familiaris), UniProt A5D7B7 1-760 (bovine entry)); assay: flow cytometry on Expi293F cells transiently expressing dog FAPα, gMFI PE
T2 chain: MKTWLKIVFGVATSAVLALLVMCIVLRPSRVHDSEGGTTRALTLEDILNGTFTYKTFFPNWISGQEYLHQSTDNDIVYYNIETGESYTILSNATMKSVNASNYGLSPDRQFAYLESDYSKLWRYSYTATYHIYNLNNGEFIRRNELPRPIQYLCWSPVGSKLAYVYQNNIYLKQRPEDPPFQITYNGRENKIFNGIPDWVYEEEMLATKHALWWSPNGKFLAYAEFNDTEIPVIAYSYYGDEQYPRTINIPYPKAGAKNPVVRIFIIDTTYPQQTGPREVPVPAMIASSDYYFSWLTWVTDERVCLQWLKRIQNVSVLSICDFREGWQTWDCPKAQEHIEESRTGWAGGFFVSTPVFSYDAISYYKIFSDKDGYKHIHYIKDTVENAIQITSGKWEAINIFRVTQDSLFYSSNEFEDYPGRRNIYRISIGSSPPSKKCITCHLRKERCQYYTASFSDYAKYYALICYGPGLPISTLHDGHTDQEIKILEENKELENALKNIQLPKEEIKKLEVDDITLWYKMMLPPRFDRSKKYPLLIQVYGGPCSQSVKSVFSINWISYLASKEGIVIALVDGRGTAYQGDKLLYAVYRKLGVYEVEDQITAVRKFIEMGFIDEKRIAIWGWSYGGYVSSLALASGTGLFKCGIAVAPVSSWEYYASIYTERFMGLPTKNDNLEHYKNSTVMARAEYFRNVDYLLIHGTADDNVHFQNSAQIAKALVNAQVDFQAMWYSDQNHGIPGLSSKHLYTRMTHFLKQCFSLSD
Protocol: as §1, §2

[4] = molecular target: T3, human DR4 (Death Receptor 4), cell surface expressed on human tumor cell lines (human, UniProt O00220 24-468); assay: flow cytometry, A549 cells, n = 1
T3 construct: also called TNFRSF10A; TRAIL-R1
T3 sequence: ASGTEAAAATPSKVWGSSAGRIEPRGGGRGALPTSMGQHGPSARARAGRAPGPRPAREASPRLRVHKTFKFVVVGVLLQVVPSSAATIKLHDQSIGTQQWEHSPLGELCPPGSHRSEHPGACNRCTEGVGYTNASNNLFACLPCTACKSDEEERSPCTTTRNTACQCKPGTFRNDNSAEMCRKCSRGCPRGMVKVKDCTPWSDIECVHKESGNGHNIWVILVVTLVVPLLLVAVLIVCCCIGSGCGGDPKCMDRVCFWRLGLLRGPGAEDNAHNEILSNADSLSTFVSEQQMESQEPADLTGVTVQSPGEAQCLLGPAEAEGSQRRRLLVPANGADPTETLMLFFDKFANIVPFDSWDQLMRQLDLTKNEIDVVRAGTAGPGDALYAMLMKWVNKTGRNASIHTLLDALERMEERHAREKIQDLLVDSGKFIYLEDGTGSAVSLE

B1: BisG1-FAPα-FEAL/b12-FEAR (bispecific antibody, human IgG1, kappa)
heavy 1: EVQLLESGGGLVQPGGSPRLSCEASGFTFSSYALSWVRQAPGKGLEWVSAISGSGGGRYYADSVKGRFTISRDNSKNTLFLQMNSLRAEDTAVYYCAKEGYSSSGTYWDHWGQGTLVTVSSASTKGPSVFPLAPSSKSTSGGTAALGCLVKDYFPEPVTVSWNSGALTSGVHTFPAVLQSSGLYSLSSVVTVPSSSLGTQTYICNVNHKPSNTKVDKRVEPKSCDKTHTCPPCPAPEFEGGPSVFLFPPKPKDTLMISRTPEVTCVVVAVSHEDPEVKFNWYVDGVEVHNAKTKPREEQYNSTYRVVSVLTVLHQDWLNGKEYKCKVSNKALPAPIEKTISKAKGQPREPQVYTLPPSREEMTKNQVSLTCLVKGFYPSDIAVEWESNGQPENNYKTTPPVLDSDGSFLLYSKLTVDKSRWQQGNVFSCSVMHEALHNHYTQKSLSLSPG
light 1: AIQMTQSPSSVSASVGDRVTITCRASQGVSSWLAWYQQKPGRAPKLLIYVASTLQSGVPSRFSGSGSGTDFTLTINSLQPEDFATYYCQQANSFPPTFGQGTRLEMKRTVAAPSVFIFPPSDEQLKSGTASVVCLLNNFYPREAKVQWKVDNALQSGNSQESVTEQDSKDSTYSLSSTLTLSKADYEKHKVYACEVTHQGLSSPVTKSFNRGEC
heavy 2: QVQLVQSGAEVKKPGASVKVSCQASGYRFSNFVIHWVRQAPGQRFEWMGWINPYNGNKEFSAKFQDRVTFTADTSANTAYMELRSLRSADTAVYYCARVGPYSWDDSPQDNYYMDVWGKGTTVIVSSASTKGPSVFPLAPSSKSTSGGTAALGCLVKDYFPEPVTVSWNSGALTSGVHTFPAVLQSSGLYSLSSVVTVPSSSLGTQTYICNVNHKPSNTKVDKRVEPKSCDKTHTCPPCPAPEFEGGPSVFLFPPKPKDTLMISRTPEVTCVVVAVSHEDPEVKFNWYVDGVEVHNAKTKPREEQYNSTYRVVSVLTVLHQDWLNGKEYKCKVSNKALPAPIEKTISKAKGQPREPQVYTLPPSREEMTKNQVSLTCLVKGFYPSDIAVEWESNGQPENNYKTTPPVLDSDGSFFLYSRLTVDKSRWQQGNVFSCSVMHEALHNHYTQKSLSLSPG
light 2: EIVLTQSPGTLSLSPGERATFSCRSSHSIRSRRVAWYQHKPGQAPRLVIHGVSNRASGISDRFSGSGSGTDFTLTITRVEPEDFALYYCQVYGASSYTFGQGTKLERKRTVAAPSVFIFPPSDEQLKSGTASVVCLLNNFYPREAKVQWKVDNALQSGNSQESVTEQDSKDSTYSLSSTLTLSKADYEKHKVYACEVTHQGLSSPVTKSFNRGEC
notes: Fab-arm exchange of IgG1-FAPα-FEAL and IgG1-b12-FEAR
EC50 [1]: 0.16 µg/mL | EC50 [2]: 0.35 µg/mL | binding result [3]: binds

B2: BisG1-b12-FERL/DR4-FERR (bispecific antibody, human IgG1, kappa, lambda)
heavy 1: B1 heavy 2 with G246R, A275D, F415L, R419K
light 1: B1 light 2
heavy 2: QVQLQESGPGLVKPSGTLSLTCAVSGGSISSYSWWSWIRQPPGKGLEWIGELYHSGSTNYNPSLKSRVTISVDKSKNQFSLKLRSVTAADTAVYYCVRGVATIDYWGQGTLVTVSSASTKGPSVFPLAPSSKSTSGGTAALGCLVKDYFPEPVTVSWNSGALTSGVHTFPAVLQSSGLYSLSSVVTVPSSSLGTQTYICNVNHKPSNTKVDKRVEPKSCDKTHTCPPCPAPEFERGPSVFLFPPKPKDTLMISRTPEVTCVVVDVSHEDPEVKFNWYVDGVEVHNAKTKPREEQYNSTYRVVSVLTVLHQDWLNGKEYKCKVSNKALPAPIEKTISKAKGQPREPQVYTLPPSREEMTKNQVSLTCLVKGFYPSDIAVEWESNGQPENNYKTTPPVLDSDGSFFLYSRLTVDKSRWQQGNVFSCSVMHEALHNHYTQKSLSLSPG
light 2: QSALTQPPSASGSPGQSVTISCTGTSSDVGGYNFVSWYQQDPGKAPKLLIYEVTKRPSGVPDRFSGSKSGNTASLTVSGLQAEDEADYYCSSYAGSNNVMFGGGTKLTVLGQPKAAPSVTLFPPSSEELQANKATLVCLISDFYPGAVTVAWKADSSPVKAGVETTTPSKQSNNKYAASSYLSLTPEQWKSHRSYSCQVTHEGSTVEKTVAPTECS
notes: Fab-arm exchange of IgG1-b12-FERL and IgG1-DR4-FERR; also called bsIgG1-ctrl-FERLxDR4-FERR
EC50 [4]: 0.89 µg/mL

B3: IgG1-FAPα-FERL (antibody)
heavy: B1 heavy 1 with G240R, A269D
light: B1 light 1
notes: Bivalent monoclonal IgG1 kappa
EC50 [1]: 0.11 µg/mL | EC50 [2]: 0.16 µg/mL | binding result [3]: binds

B4: IgG1-DR4-FERR (antibody, V domains shown)
VH: QVQLQESGPGLVKPSGTLSLTCAVSGGSISSYSWWSWIRQPPGKGLEWIGELYHSGSTNYNPSLKSRVTISVDKSKNQFSLKLRSVTAADTAVYYCVRGVATIDYWGQGTLVTVSS
VL: QSALTQPPSASGSPGQSVTISCTGTSSDVGGYNFVSWYQQDPGKAPKLLIYEVTKRPSGVPDRFSGSKSGNTASLTVSGLQAEDEADYYCSSYAGSNNVMFGGGTKLTVLG
notes: Bivalent monoclonal IgG1 lambda
EC50 [4]: 0.51 µg/mL
